Measurements published in paper PMC8967028.

Target: SARS-CoV-1 spike (S) receptor binding domain (SARS-CoV-1)
Test: SPR

Q: For parental VHH-72-Fc (Fc fusion), which koff is on record?
A: 0.00021 s⁻¹
